The source of these data is FireProtDB (doi:10.1093/protein/gzw068).

B1: N157W, Q93D82 (parent)
chain: MSTAIVTNVKHFGGMGSALRLSEAGHTVACHDESFKQKDELEAFAETYPQLKPMSEQEPAELIEAVTSAYGQVDVLVSNDIFAPEFQPIDKYAVEDYRGAVEALQIRPFALVNAVASQMKKRKSGHIIFITSATPFGPWKELSTYTSARAGACTLANALSKELGEYNIPVFAIGPNYLHSEDSPYFYPTEPWKTNPEHVAHVKKVTALQRLGTQKELGELVAFLASGSCDYLTGQVFWLAGGFPMIERWPGMPE

The variants in the data set derive from B1. The settings on record: Rhizobium radiobacter; pH 7.7; Thermal; CD; Phosphate 5mM; structure 1PWX; whole UniProt chain shown.

On to N157W, for which the Tm (usually the temperature at which the thermal transition is half complete) amounted to 56 °C and the “change of melting temperature, mutant - wild type (higher = more stable)” value (from here on “change of melting temperature, mutant”) was -9 °C.

Turning to N157F, the Tm stood at 64 °C and the “change of melting temperature, mutant” value was -1 °C.

N157R: the Tm was found to be 60 °C and the “change of melting temperature, mutant” value was -5 °C.

In the case of E56A, the Tm was determined as 65 °C and the “change of melting temperature, mutant” value is 0 °C.

On to S68N, for which the Tm turned out to be 65.5 °C and the “change of melting temperature, mutant” value came to 0.5 °C.

In the case of S68R, the Tm is 66.5 °C and the “change of melting temperature, mutant” value was 1.5 °C.

Turning to S68Q, the Tm came to 63 °C and the “change of melting temperature, mutant” value was -2 °C.

Regarding S68K, the melting temperature (Tm) was 65 °C and the “change of melting temperature, mutant” value was found to be 0 °C.

T7M: the Tm was 65 °C and the “change of melting temperature, mutant” value came to 0 °C.

As for T7F, the Tm was 65 °C and the “change of melting temperature, mutant” value is 0 °C.

Consider T67Q, for which the Tm was 63.5 °C and the “change of melting temperature, mutant” value was -1.5 °C.

As to E58Q, the midpoint of thermal melting (Tm) was found to be 67.5 °C and the “change of melting temperature, mutant” value was determined as 2.5 °C.

In the case of E58N, the Tm amounted to 65 °C and the “change of melting temperature, mutant” value stood at 0 °C.

In the case of S117K, the Tm stood at 65 °C and the “change of melting temperature, mutant” value was determined as 0 °C.

With S117A, the Tm worked out at 63.5 °C and the “change of melting temperature, mutant” value was -1.5 °C.

For the variant A83N, the Tm was 63 °C and the “change of melting temperature, mutant” value is -2 °C.

As for A83M, the Tm turned out to be 65.5 °C and the “change of melting temperature, mutant” value is 0.5 °C.

As for A83Q, the Tm amounted to 65.5 °C and the “change of melting temperature, mutant” value was 0.5 °C.

On to A45L, for which the Tm is 64 °C and the “change of melting temperature, mutant” value is -1 °C.

Turning to A45K, the melting temperature (Tm) was determined as 65.5 °C and the “change of melting temperature, mutant” value came to 0.5 °C.

With A93K, the Tm came to 70.5 °C and the “change of melting temperature, mutant” value was found to be 5.5 °C.

For A93T, the Tm turned out to be 69.5 °C and the “change of melting temperature, mutant” value is 4.5 °C.

On to A93N, for which the Tm is 69 °C and the “change of melting temperature, mutant” value stood at 4 °C.

As to D230N, the Tm was found to be 62 °C and the “change of melting temperature, mutant” value was -3 °C.

Regarding F86W, the Tm was determined as 64.5 °C and the “change of melting temperature, mutant” value is -0.5 °C.

Take V94L: the Tm was found to be 63.5 °C and the “change of melting temperature, mutant” value is -1.5 °C.

As for K140P, the Tm was 54.5 °C and the “change of melting temperature, mutant” value is -10.5 °C.

Regarding K140S, the Tm is 62.5 °C and the “change of melting temperature, mutant” value is -2.5 °C.

S55P: the Tm was 65 °C and the “change of melting temperature, mutant” value was determined as 0 °C.

Consider T194Q, for which the Tm is 61 °C and the “change of melting temperature, mutant” value was -4 °C.

For T154L, the Tm was found to be 58.5 °C and the “change of melting temperature, mutant” value is -6.5 °C.

As for T154V, the Tm is 62 °C and the “change of melting temperature, mutant” value was -3 °C.

Take T154I: the Tm is 62 °C and the “change of melting temperature, mutant” value was -3 °C.

As for E165P, the Tm came to 57.5 °C and the “change of melting temperature, mutant” value is -7.5 °C.

In the case of E165A, the Tm stood at 65.5 °C and the “change of melting temperature, mutant” value came out at 0.5 °C.

Consider E61K, for which the Tm stood at 68.5 °C and the “change of melting temperature, mutant” value worked out at 3.5 °C.

Regarding E61R, the Tm is 64.5 °C and the “change of melting temperature, mutant” value is -0.5 °C.

Turning to E61Q, the Tm stood at 66.5 °C and the “change of melting temperature, mutant” value is 1.5 °C.

Turning to S22A, the Tm was 64.5 °C and the “change of melting temperature, mutant” value was -0.5 °C.

S17A: the Tm turned out to be 65 °C and the “change of melting temperature, mutant” value turned out to be 0 °C.

Regarding C153N, the Tm was determined as 78.5 °C and the “change of melting temperature, mutant” value came to 13.5 °C.

Turning to C153I, the melting temperature (Tm) was 60 °C and the “change of melting temperature, mutant” value was -5 °C.

As to C153H, the Tm amounted to 53.5 °C and the “change of melting temperature, mutant” value is -11.5 °C.

Consider C153V, for which the Tm amounted to 50.5 °C and the “change of melting temperature, mutant” value was -14.5 °C.

For the variant C153L, the Tm was determined as 63 °C and the “change of melting temperature, mutant” value is -2 °C.

As for V205L, the Tm came to 63.5 °C and the “change of melting temperature, mutant” value was -1.5 °C.

C30V: the Tm turned out to be 64 °C and the “change of melting temperature, mutant” value was -1 °C.

As for S143V, the Tm amounted to 59.5 °C and the “change of melting temperature, mutant” value is -5.5 °C.

Regarding A60Y, the midpoint of thermal melting (Tm) worked out at 64.5 °C and the “change of melting temperature, mutant” value is -0.5 °C.

Take A60K: the Tm was determined as 61 °C and the “change of melting temperature, mutant” value was -4 °C.

For the variant A60L, the Tm was 63 °C and the “change of melting temperature, mutant” value is -2 °C.

For A60R, the Tm stood at 66.5 °C and the “change of melting temperature, mutant” value was found to be 1.5 °C.

Regarding D182F, the Tm is 63 °C and the “change of melting temperature, mutant” value was -2 °C.

With T144I, the Tm turned out to be 57 °C and the “change of melting temperature, mutant” value was -8 °C.

As for A69M, the Tm came to 62.5 °C and the “change of melting temperature, mutant” value is -2.5 °C.

As for A69K, the Tm is 63.5 °C and the “change of melting temperature, mutant” value is -1.5 °C.

A69R: the Tm came out at 65.5 °C and the “change of melting temperature, mutant” value was 0.5 °C.

Consider A69L, for which the midpoint of thermal melting (Tm) is 64.5 °C and the “change of melting temperature, mutant” value was -0.5 °C.

For A69H, the Tm came out at 64.5 °C and the “change of melting temperature, mutant” value is -0.5 °C.

Regarding K193L, the midpoint of thermal melting (Tm) was 65 °C and the “change of melting temperature, mutant” value is 0 °C.

In the case of K91Q, the Tm stood at 61 °C and the “change of melting temperature, mutant” value is -4 °C.

On to M54F, for which the Tm is 63.5 °C and the “change of melting temperature, mutant” value was -1.5 °C.

As for F82W, the midpoint of thermal melting (Tm) came to 59 °C and the “change of melting temperature, mutant” value was -6 °C.

As for Q37E, the Tm was found to be 65 °C and the “change of melting temperature, mutant” value turned out to be 0 °C.

Q37D: the Tm came out at 65 °C and the “change of melting temperature, mutant” value is 0 °C.

On to N195H, for which the Tm is 64.5 °C and the “change of melting temperature, mutant” value was -0.5 °C.

In the case of N195V, the midpoint of thermal melting (Tm) came out at 59 °C and the “change of melting temperature, mutant” value was -6 °C.

As to R107Q, the Tm is 65 °C and the “change of melting temperature, mutant” value is 0 °C.

For E42Q, the Tm is 64 °C and the “change of melting temperature, mutant” value is -1 °C.
